Consider 21 molecules from article PMC7279355 (International Journal of Molecular Sciences, 2020).

Ends that are not written are not given here.

The assay addresses T1, PD-L1, histidine (His)-tagged (UniProt Q9NZQ7 19-238).
T1 construct: PD-L1 (programmed cell death-ligand 1) of the AlphaLISA PD-1/PD-L1 kit; Held on anti-His-conjugated acceptor beads; also called His-tagged PD-L1; programmed cell death-ligand 1; source: bought: PerkinElmer AlphaLISA assay kit (AL356 HV/C/F)
As to the kind of experiment: AlphaScreen or HTRF; AlphaLISA kit AL356 HV/C/F (PerkinElmer), competition: biotin-conjugated PD-1 on streptavidin-coated donor beads, His-tagged PD-L1 on anti-His acceptor beads; 2 uL each of inhibitor dilution, PD-L1 (25 nM), PD-1 (25 nM) and the two beads in 10 uL; 25 °C, 90 min; IC50 from sigmoidal fit. The note with it: both partners purified.

T1 sequence (Q9NZQ7 19-238): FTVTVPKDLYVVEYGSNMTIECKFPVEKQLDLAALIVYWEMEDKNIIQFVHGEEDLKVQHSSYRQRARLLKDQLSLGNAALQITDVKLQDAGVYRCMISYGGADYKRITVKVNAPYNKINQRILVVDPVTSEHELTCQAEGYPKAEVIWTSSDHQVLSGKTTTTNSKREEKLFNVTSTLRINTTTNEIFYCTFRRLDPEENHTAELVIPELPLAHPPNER

A word on the IC50: it is the concentration that inhibits the measured activity by half. As for QYQ (not fully specified; X (position 2) = biphenyl-conjugated bromotyrosine) [QXQ], the IC50 amounted to 1960 µM.

Take RYN (not fully specified; X (position 2) = biphenyl-conjugated bromotyrosine) [RXN]: the IC50 turned out to be 405 µM.

The molecule WYG (not fully specified; X (position 2) = biphenyl-conjugated bromotyrosine) [WXG] showed an IC50 of 405 µM.

Tyr-Tyr-Cys (not fully specified (residue 2)) [YXC] showed an IC50 of 465 µM.

YHP (not fully specified; X (position 1) = biphenyl-conjugated bromotyrosine) [XHP] displayed an IC50 of 359 µM.

Consider YGGGG (not fully specified; X (position 1) = biphenyl-conjugated bromotyrosine) [XGGGG], for which the IC50 turned out to be 648 µM. Compared with the last molecule, the IC50 is about 1.8-fold higher.

As for ERYNK (not fully specified; X (position 3) = biphenyl-conjugated bromotyrosine) [ERXNK], the IC50 was 15.6 µM. Compared with the last molecule, the IC50 is about 42-fold lower.

SYR (not fully specified; X (position 2) = biphenyl-conjugated bromotyrosine) [SXR] gave an IC50 of 796 µM.

For YGG (not fully specified; X (position 1) = biphenyl-conjugated bromotyrosine) [XGG], the IC50 is 6500 µM.

Consider YRRRR (not fully specified; X (position 1) = biphenyl-conjugated bromotyrosine) [XRRRR], for which the IC50 turned out to be 436 µM.

For the molecule YGGG (not fully specified; X (position 1) = biphenyl-conjugated bromotyrosine) [XGGG], the IC50 amounted to 6770 µM.

The molecule NYR (not fully specified; X (position 2) = biphenyl-conjugated bromotyrosine) [NXR] displayed an IC50 of 982 µM. Compared with the last molecule, the IC50 is about 6.9-fold lower.

YCSE (not fully specified; X (position 1) = biphenyl-conjugated bromotyrosine) [XCSE]: the IC50 is 1560 µM.

Regarding YGGGGG (not fully specified; X (position 1) = biphenyl-conjugated bromotyrosine) [XGGGGG], the IC50 was 846 µM.

Molecule CYA (not fully specified; X (position 2) = biphenyl-conjugated bromotyrosine) [CXA] had an IC50 of 665 µM.

As to YNH (not fully specified; X (position 1) = biphenyl-conjugated bromotyrosine) [XNH], the IC50 amounted to 313 µM.

With WRYNN (not fully specified; X (position 3) = biphenyl-conjugated bromotyrosine) [WRXNN], the IC50 amounted to 157 µM.

As to CYR (not fully specified; X (position 2) = biphenyl-conjugated bromotyrosine) [CXR], the IC50 was determined as 550 µM.

Molecule WRYNQ (not fully specified; X (position 3) = biphenyl-conjugated bromotyrosine) [WRXNQ] displayed an IC50 of 163 µM.

GYG (not fully specified; X (position 2) = biphenyl-conjugated bromotyrosine) [GXG] yielded an IC50 of 676 µM. This IC50 is about 4.1-fold higher than that of the molecule before.

YNL (not fully specified; X (position 1) = biphenyl-conjugated bromotyrosine) [XNL] had an IC50 of 855 µM. The IC50 values of the last two molecules are within 1.5-fold of each other.
